Where two headings read alike, the source gives them in different places.
Tests used:
[1] = tested on: hedgehog signaling pathway; assay: Hedgehog signaling pathway activation (8X-Gli reporter, Gli 1 and Patched Q-RT-PCR, cyclopamine inhibition); assay type: cell-based; settings: M2 cells
Method: M2-10B4 bone marrow stromal cells were transfected with an 8XGli luciferase reporter or the empty vector (pGL3b). Cells were subsequently treated with control vehicle, 5 μM Oxy49, or 400 ng/ml recombinant human sonic hedgehog (Shh) as positive control. After 48 hours of treatments, reporter luciferase activity was measured and normalized to Renilla luciferase activity (See FIG. 14). […] M2-10B4 bone marrow stromal cells were transfected with an 8XGli luciferase reporter or the empty vector (pGL3b). Cells were subsequently treated with control vehicle, 5 μM Oxy34, or 400 ng/ml recombinant human sonic hedgehog (Shh) as positive control. After 48 hours of treatments, reporter luciferase activity was measured and normalized to Renilla luciferase activity (See FIG. 15). […] After 48 hours of treatments, mRNA was extracted from cells and analyzed by Q-RT-PCR for expression of hedgehog target genes Gli 1 and Patched (See FIGS. 16A and 16B). […] Luciferase reporter activity using a reporter construct with 8X-Gli binding sites • 2. Q-RT-PCR analysis of the induction of hedgehog pathway target gene expression Gli 1 and Patched • 3.

[2] = tested on: M2-10B4 marrow stromal cells; assay: Alkaline phosphatase (ALP) activity assay
Method: The protocol is a modification of alkaline phosphatase assay kit from Sigma. Cells are cultured in 24-well tissue culture plates. After treatments with test agents, cells are rinsed twice with PBS and scraped into 200 ml of lysis buffer (0.2% NP-40 in 1 mM MgCl2) and sonicated for 10 seconds. Next, 1 ml of reaction mixture is added to each well. Reaction mixture is 221 alkaline buffer (Sigma): stock substrate solution (1:1). Stock substrate solution is prepared by dissolving 40 mg of Sigma 104 phosphatase substrate in 10 ml of ddH2O. After addition of reaction mixture to lysed cells, incubation is performed for 30 minutes at 37 C. […] The reaction is stopped by the addition of 12 ml of 1N NaOH to each well, and absorbance is determined at 405 nm. Alkaline phosphatase activity is calculated using p-nitrophenol as a standard, according to Sigma kit's instructions. Results are normalized to total protein in each well determined using the Bio-Rad protein assay solution (Bio-Rad Laboratories).
M2-10B4 marrow stromal cells were treated with oxysterols at various doses for 3 days after which they were collected and analyzed by calorimetric assay for alkaline phosphatase activity (a marker of osteoblastic differentiation) (Table 1); the alkaline phosphatase assay described above was used.
M2-10B4 marrow stromal cells were treated with oxysterols at various doses for 3 days after which they were collected and analyzed by colorimetric assay for alkaline phosphatase activity (a marker of osteoblastic differentiation) (Table 2); the alkaline phosphatase assay described above was used.
M2-10B4 bone marrow stromal cells were treated in culture with control vehicle (C) or various oxysterol (Oxy) molecules as indicated at either 1.25 (1) or 2.5 (2) μM concentrations. After 3 days of treatment, alkaline phosphatase activity as a measure of early osteogenic differentiation of cells was measured in whole cell lysates (See FIG. 9 and Table 3); the alkaline phosphatase assay described above was used.

[3] = tested on: bone sialoprotein (BSP) mRNA expression; assay: Q-RT-PCR for bone sialoprotein (BSP) mRNA expression; assay type: cell-based; settings: M2-10B4 cells
Method: (§1) Total RNA was extracted with the RNA isolation kit from Stratagene (La Jolla, Calif.) according to the manufacturer's instructions. RNA was DNase-treated using the DNA-free kit from Ambion, Inc. (Austin, Tex.). 3 μg of RNA was reverse-transcribed using reverse transcriptase from Stratagene (La Jolla, Calif.) to make single stranded cDNA. The cDNAs were mixed with Qi SYBR Green Supermix from Bio-Rad Laboratories (Hercules, Calif.) for quantitative RT-PCR using a Bio-Rad I-cycler IQ quantitative thermocycler. All PCR samples were prepared in triplicate or quadruplicate. Each sample was added to duplicate wells of a 96-well plate. After 40 cycles of PCR, melt curves were analyzed in order to ensure primer specificity, and the identity of all PCR products were verified by sequencing and comparing with the complete mRNA sequence obtained from PubMed's GenBank. Fold changes in gene expression were calculated using the ΔΔCt method (14). […]
M2-10B4 cells were treated with control vehicle (C) or various doses (μM) of oxysterols (Oxy34 or Oxy49) as indicated. […] After 6 days of treatments, mRNA was extracted from cells and analyzed by Q-RT-PCR for BSP and GAPDH expression (See FIG. 17).
After 48 hours of treatment, RNA was isolated and analyzed for BSP expression by Q-RT-PCR as a measure of osteogenic differentiation (See FIG. 10). […]

[4] = tested on: M2-10B4 marrow stromal cells; assay: 45Ca incorporation assay (matrix mineralization); assay type: cell-based
Method: ^45Ca incorporation assay as a measure of matrix mineralization in cell monolayers was performed as previously described (45).
^45Ca incorporation assay (see Example above) was used to measure mineralization in M2 cells pre-treated with 1 μg/ml Dkk-1 or vehicle for 2 h, and then treated with control vehicle or 2.5 μM SS 12 days (See FIG. 2D).
^45Ca incorporation assay was used to measure mineralization in M2 cells pre-treated with various doses of LY, 1 μM Wm, or vehicle for 2 h, and then treated with 5 μM SS or control vehicle for 14 days (See FIG. 7C).
M2-10B4 cells were treated for 14 days with control vehicle (C) or various concentrations (μM) of oxysterols as indicated. SS refers to 20S-hydroxycholesterol+22S-hydroxycholesterol in combination. After 12 days with refeeding every 5th day, ^45Ca was added and on day 14, ^45Ca incorporation was measured (See FIG. 18).

marrow stromal cells = assay: Osteoinductive properties (osteoblast differentiation markers: ALP activity, osteocalcin mRNA, mineralization); assay type: cell-based; settings: induction of osteoblast differentiation markers
Excerpt: Oxysterols discussed in this application include those designated as Oxy22, Oxy26, Oxy27, Oxy28, Oxy39, Oxy40, Oxy41, Oxy42, Oxy48, Oxy49, Oxy20, Oxy34, Oxy36, Oxy38, Oxy50, Oxy51, Oxy52, and Oxy53. At least the following oxysterols have been identified as osteoinductive: Oxy22, Oxy26, Oxy27, Oxy28, Oxy39, Oxy40, Oxy41, Oxy42, Oxy48, Oxy49, Oxy50, Oxy51, Oxy52, and Oxy53. The osteoinductive properties of these oxysterols is shown by their ability to induce the expression of various osteoblast differentiation markers, including alkaline phosphatase activity, osteocalcin mRNA expression, and mineralization. These oxysterols are activators of the hedgehog signaling pathway.

[5] = tested on: Patched (Ptch) mRNA expression; assay: Q-RT-PCR for Patched (Ptch) mRNA expression; assay type: cell-based; settings: M2 cells pre-treated 2 h with inhibitor, then 5 μM SS for 48 h
Method: as §1, with “(14). All primers were designed using the Beacon Designer software from Bio-Rad Laboratories (Hercules, Calif.).” for “(14).”
M2 cells were pre-treated for 2 h with Dkk-1 or vehicle. […] RNA was isolated and analyzed for Nkd2 (C), Wif-1 (D), and Ptch (E) expression (See FIGS. 5C-5E).

[6] = tested on: Runx2 DNA binding activity; assay: Runx2 DNA binding activity by EMSA analysis; assay type: cell-based; settings: M2 cells
[7] = tested on: osteocalcin (OCN) mRNA expression; assay: Q-RT-PCR for osteocalcin (OCN) mRNA expression; assay type: cell-based; settings: M2 cells pre-treated 2 h with inhibitor, then SS
Method: as §1, with “(14). All primers were designed using the Beacon Designer software from Bio-Rad Laboratories (Hercules, Calif.).” for “(14).”
M2 cells were pre-treated with vehicle or 1 μg/ml Dkk-1 for 2 h followed by treatment with control vehicle or 5 μM SS for 6 days. RNA was isolated and analyzed by Q-RT-PCR for OCN expression (See FIG. 2E).
RNA was analyzed for OCN expression by Q-RT-PCR and normalized to GAPDH (p<0.01 for Control versus SS and for SS versus SS+LY and SS+Wm) (See FIG. 7B).

[8] = tested on: Naked Cuticle 2 (Nkd2) mRNA expression; assay type: cell-based; settings: M2 cells pre-treated 2 h with inhibitor, then 5 μM SS for 48 h
Method: (§2) Total RNA was extracted with the RNA isolation kit from Stratagene (La Jolla, Calif.) according to the manufacturer's instructions. RNA was DNase-treated using the DNA-free kit from Ambion, Inc. (Austin, Tex.). 3 μg of RNA was reverse-transcribed using reverse transcriptase from Stratagene (La Jolla, Calif.) to make single stranded cDNA. The cDNAs were mixed with Qi SYBR Green Supermix from Bio-Rad Laboratories (Hercules, Calif.) for quantitative RT-PCR using a Bio-Rad I-cycler IQ quantitative thermocycler. All PCR samples were prepared in triplicate or quadruplicate. Each sample was added to duplicate wells of a 96-well plate. After 40 cycles of PCR, melt curves were analyzed in order to ensure primer specificity, and the identity of all PCR products were verified by sequencing and comparing with the complete mRNA sequence obtained from PubMed's GenBank. Fold changes in gene expression were calculated using the ΔΔCt method (14). All primers were designed using the Beacon Designer software from Bio-Rad Laboratories (Hercules, Calif.). Primers used are as follows: OCN (5′-[…]-3′ (SEQ ID NO: 1) and 5′-[…]-3′ (SEQ ID NO: 2)), Axin2(5′[…]-3′ (SEQ ID NO: 3) and 5′-[…]-3′ (SEQ ID NO: 4)), Cyclin D1(5′-[…]-3′ (SEQ ID NO: 5) and 5′-[…]-3′ (SEQ ID NO: 6)), NKD2 (5′-[…]-3′ (SEQ ID NO: 7) and 5′[…]-3′ (SEQ ID NO: 8)), WIF-1 (5′-[…]-3′ (SEQ ID NO: 9) and 5′-[…]-3′ (SEQ ID NO: 10)), and GAPDH (5′-[…]-3′ (SEQ ID NO: 11) and 5′-[…]-3′ (SEQ ID NO: 12)).
(§3) M2 cells were treated with 5 μM SS, 200 ng/ml Shh, or control vehicle for 48 h. RNA was isolated and analyzed by Q-RT-PCR for Nkd2 (E) and WIF-1 (F) expression (See FIGS. 4E and 4F).
(§4) M2 cells were pre-treated for 2 h with vehicle or cyclopamine (Cyc) at the concentrations indicated. Next, cells were treated with 5 μM SS or control vehicle for 48 h. RNA was isolated and analyzed for Nkd2 (A) and WIF-1 (B) expression by Q-RT-PCR (See FIGS. 5A and 5B).
(§5) M2 cells were pre-treated for 2 h with Dkk-1 or vehicle. Next, cells were treated with 5 μM SS or control vehicle for 48 h. RNA was isolated and analyzed for Nkd2 (C), Wif-1 (D), and Ptch (E) expression (See FIGS. 5C-5E).
(§6) M2 cells were pre-treated for 2 h with 5 μM LY, 2.5 μM Wm, or vehicle followed by treatment with 5 μM SS or control vehicle for 48 h. RNA was isolated and analyzed for Nkd2 (FIG. 7E) and Wif-1 (FIG. 7F) expression.

[9] = tested on: Wnt Inhibitory factor-1 (Wif-1) mRNA expression; assay type: cell-based; settings: M2 cells pre-treated 2 h with inhibitor, then 5 μM SS for 48 h
Method: as §2, §3, §4, §5, §6

[10] = M210B4, 72 h, read-out: Fold Induction in alkaline phosphatase activity compared to control untreated cells
[11] = M210B4, 72 h, read-out: Fold Induction in alkaline phosphatase activity over control untreated cells

## COC[C@H]1OC(=O)c2coc3c2[C@@]1(C)C1=C(C3=O)[C@@H]2CCC(=O)[C@@]2(C)C[C@H]1OC(C)=O [Wm, wortmannin]
[1]
  Inhibition of oxysterol-induced hedgehog pathway activation: did not inhibit

## C=C(C)CCC[C@](C)(O)[C@H]1CC[C@H]2[C@@H]3C[C@H](O)[C@H]4C[C@@H](O)CC[C@]4(C)[C@H]3CC[C@@]21C [Oxy49, (3S,5S,6S,8R,9S,10R,13S,14S,17S)-17-((S)-2-Hydroxy-6-methylhept-6-en-2-yl)-10,13-dimethylhexadecahydro-1H-cyclopenta[a]phenanthrene-3,6-diol]
[2]; [10]
  fold induction at 2.5 µM: 170
  fold induction at 5 µM: 204
[2]; [11]
  fold induction at 1.25 µM: 46
  fold induction at 2.5 µM: 68
[3]
  BSP expression: induce BSP expression
[4]; M2-10B4 cells treated for 14 days
  Mineralization (45Ca incorporation): increased mineralization
Marrow stromal cells
  Osteoinductive property: osteoinductive

B1: Dkk-1: recombinant mouse Dickkopf related protein 1; LRP5/6 inhibitor, Wnt signaling inhibitor (protein, UniProt O54908 32-272, looked up)
Dickkopf-related protein 1: TLNSVLINSNAIKNLPPPLGGAGGQPGSAVSVAPGVLYEGGNKYQTLDNYQPYPCAEDEECGSDEYCSSPSRGAAGVGGVQICLACRKRRKRCMRHAMCCPGNYCKNGICMPSDHSHFPRGEIEESIIENLGNDHNAAAGDGYPRRTTLTSKIYHTKGQEGSVCLRSSDCAAGLCCARHFWSKICKPVLKEGQVCTKHKRKGSHGLEIFQRCYCGEGLACRIQKDHHQASNSSRLHTCQRH
[5]
  Inhibition of oxysterol-induced Patched (Ptch) mRNA expression: did not inhibit
[2]; M2 cells pre-treated 2 h with 1 or 2 μg/ml Dkk-1, then 50 ng/ml BMP-2 for 3 days
  Inhibition of BMP-2-induced ALP activity: only significantly inhibited by using the higher concentration
[2]; M2 cells pre-treated 2 h with inhibitor, then 200 ng/ml Shh for 3 days
  Inhibition of Shh-induced ALP activity: partially inhibited
[2]; M2 cells pre-treated 2 h with inhibitor, then 2.5 μM SS for 3 days
  Inhibition of oxysterol-induced ALP activity: partial but significant inhibition
[2]; M2 cells, Dkk-1 1 or 2 μg/ml without oxysterol
  ALP activity, agent alone: no observed effect
[6]
  Inhibition of oxysterol-induced Runx2 DNA binding activity: did not inhibit
[4]; M2 cells pre-treated 2 h with inhibitor, then SS for 12-14 days
  Inhibition of oxysterol-induced mineralization (45Ca incorporation): Complete and below baseline level inhibition
[7]
  Inhibition of oxysterol (SS)-induced OCN mRNA expression: did not inhibit
[8]
  Inhibition of oxysterol-induced Nkd2 expression: almost completely inhibited
[9]
  Inhibition of oxysterol-induced Wif-1 expression: only minimally inhibited
